Experimental findings from patent US20220056142A1 (Sanofi, published 2022) are described below.

Experiment [1] concerns the target T1, wild-type human FGFR3 isoform IIIc, full length, expressed on transfected cells (human, UniProt P22607 23-806).
T1 construct: also called wild-type FGFR3; FGFR3-300.19
Description: FACS, cells transfected with wild-type FGFR3. Background: Flow cytometry measures light scatter and fluorescence of single cells or particles in a stream.
Description: (§1) After three washes, the cells were incubated with a fluorescent-conjugated secondary antibody (Invitrogen).

Experiment [2] has as its target T2, human FGFR3 G380R isoform IIIc, full length, expressed on transfected cells (human, UniProt P22607 23-806).
T2 construct: also called mutant FGFR3; FGFR3^G380R-300.19
Put plainly: FACS, cells transfected with mutant FGFR3 (G380R).
Description: as §1

For experiment [3], the target named is T3, FGFR3 fused to β-galactosidase fragments (FGFR3-PK and FGFR3-EA) co-expressed in U2OS cells. Description: cell-based or functional assay.
The target in the next experiment is T4, human FGFR3 isoform IIIc (human, UniProt P22607 23-375, limits assumed).
T4 construct: also called hFGFR3IIIc; FGFR3 IIIc
T4 sequence: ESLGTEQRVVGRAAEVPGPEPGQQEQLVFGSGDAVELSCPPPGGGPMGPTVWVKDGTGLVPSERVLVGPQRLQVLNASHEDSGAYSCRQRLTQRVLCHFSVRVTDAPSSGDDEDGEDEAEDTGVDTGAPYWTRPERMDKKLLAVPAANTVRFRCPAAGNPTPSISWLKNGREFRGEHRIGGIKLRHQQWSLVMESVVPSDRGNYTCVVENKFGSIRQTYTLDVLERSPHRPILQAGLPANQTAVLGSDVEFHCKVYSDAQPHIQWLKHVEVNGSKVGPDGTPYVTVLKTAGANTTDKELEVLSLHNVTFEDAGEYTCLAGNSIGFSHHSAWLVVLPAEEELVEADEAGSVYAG
Description: reactivity grade (Table 2); method not given.

A further experiment addresses T5, human FGFR3 isoform IIIb (human, UniProt P22607-2 23-377).
T5 construct: Isoform IIIb differs from the canonical IIIc entry in the D3 domain; also called hFGFR3IIIb; FGFR3 IIIb
T5 sequence (looked up): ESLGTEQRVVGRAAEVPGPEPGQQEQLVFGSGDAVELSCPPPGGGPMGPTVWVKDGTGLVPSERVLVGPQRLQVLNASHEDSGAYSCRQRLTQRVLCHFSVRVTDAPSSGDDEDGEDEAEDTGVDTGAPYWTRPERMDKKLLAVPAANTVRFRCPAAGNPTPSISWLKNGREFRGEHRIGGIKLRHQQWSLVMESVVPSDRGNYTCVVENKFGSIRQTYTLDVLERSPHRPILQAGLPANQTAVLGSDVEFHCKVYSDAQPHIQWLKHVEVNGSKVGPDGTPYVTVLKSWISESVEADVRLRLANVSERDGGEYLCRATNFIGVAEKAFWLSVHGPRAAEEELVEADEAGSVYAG
Description: reactivity grade (Table 2); method not given.

Another experiment deals with T6, cynomolgus FGFR3 (cynomolgus).
T6 construct: also called cynoFGFR3
T6 chain: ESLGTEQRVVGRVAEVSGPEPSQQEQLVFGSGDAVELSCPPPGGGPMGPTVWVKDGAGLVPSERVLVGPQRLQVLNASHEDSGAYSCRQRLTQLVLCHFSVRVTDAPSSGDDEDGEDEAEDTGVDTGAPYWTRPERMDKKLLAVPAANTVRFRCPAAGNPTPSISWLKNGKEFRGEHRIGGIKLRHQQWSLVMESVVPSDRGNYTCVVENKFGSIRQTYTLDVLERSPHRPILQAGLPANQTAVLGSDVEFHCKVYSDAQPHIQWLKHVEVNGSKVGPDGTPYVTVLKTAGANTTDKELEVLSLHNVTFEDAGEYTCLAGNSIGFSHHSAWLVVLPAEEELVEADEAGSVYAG
Description: reactivity grade (Table 2); method not given.

Experiment [4] addresses T7, N-terminal ECD protein of mouse FGFR3 with a terminal avidin tag (mouse, UniProt Q61851 21-369).
T7 construct: extracellular domain; not shown: terminal avidin tag
T7 sequence (looked up): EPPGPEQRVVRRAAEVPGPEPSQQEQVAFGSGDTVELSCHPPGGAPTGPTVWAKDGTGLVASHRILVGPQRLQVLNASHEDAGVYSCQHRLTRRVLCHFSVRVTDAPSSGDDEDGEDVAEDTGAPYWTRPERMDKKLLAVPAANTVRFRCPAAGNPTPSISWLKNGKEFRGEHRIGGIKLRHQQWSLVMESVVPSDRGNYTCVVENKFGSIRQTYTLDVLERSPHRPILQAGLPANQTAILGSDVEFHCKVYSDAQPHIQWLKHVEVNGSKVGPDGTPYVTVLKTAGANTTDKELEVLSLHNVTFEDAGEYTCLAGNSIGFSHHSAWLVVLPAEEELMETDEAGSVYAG
Description: SPR (Biacore), FGFR3 ECD immobilised on chip, antibody injected, 1:1 fit. For orientation: SPR reads the build-up and loss of mass on a sensor chip optically.

The target in experiment [5] is T3, FGFR3 fused to β-galactosidase …. Put plainly: cell-based or functional assay. This is another data set of the same source.
Experiment [6] addresses T8, WT PRCs (mouse, UniProt Q61851). Description: cell-based or functional assay.
For experiment [7], the target named is T8, WT PRCs. Description: cell-based or functional assay. The source holds these as a separate data set.
In experiment [8] the target is T3, FGFR3 fused to β-galactosidase …. Description: cell-based or functional assay. The source holds these as a separate data set.

B1: KE35 (antibody, V domains shown)
VH: EVQLQQSGPELVKPGASVKMSCKASGYTFTDYNMHWVKQSHGKSLEWIGYINPNNGGTRYNQKFKGKATLTVNKSSSTAYMELRSLTSEDSAVYYCARERDYDGAMDYWGQGTSVTVSS
VL: DIQMTQSPSSLSASLGGKVTITCKASQDINKFIAWYQHKPGKGPRLLIHYTSTLQPGIPSRFSGSGSGRDYSFSISNLEPEDIATYYCLQYDNLLWTFGGGTKLEIK
notes: Mouse hybridoma monoclonal antibody
Consider B1, for which the binding result in experiment [1] and in [2] was “binds” each time.

B2: KE42 (antibody, V domains shown)
VH: EVQLQQSGPELVKPGASVKMSCKASGYTFTDYNMHWVKQSHGKSLQWIGYINPNNGGTNYNQNFKDKATLTVNKSSTTAYMELRSLTSEDSAVYYCARERDYDGSMDFWGQGTSVTVSS
VL: DIQMTQSPSSLSASLGGKVTITCKASQDINKFIAWYQHKPGKGPRLLIHYTSTLQPGIPSRFSGSGSGRDYSFSISNLEPEDIATYFCLQYDNLLWTFGGGTKLEIK
notes: as for B1
On to B2, for which the binding result in [1] and in [2] was “binds” throughout.

B3: KC18 (antibody, V domains shown)
VH: QVQLQQSGAELVRPGASVTLSCKASGDTFTDFEIHWVKQTPVHGLEWIGDIDPETGGTAYNQKFRGRAMLTADRSSSTAYMELRSLTSEDSAVYYCTRTYDGYPYAMDYWGQGTSVTVSS
VL: DIVMSQSPSSLAVSVGEKVTMSCKSSQSLLYSNNQKNYLAWYQQKPGQSPKLLIYWASTRESGVPDRFTGSGSGTDFTLTISSVKAEDLAVYYCQQYYSYRTFGGGTKLEIKR
In the case of B3, in experiment [3], the “EC50, inhibition of FGF18-induced FGFR3 dimerization (RLU, beta-galactosidase complementation in U2OS cells); table column 'KC18 with FGF'” value came out at 0.521 µg/mL.

B4: KE63 (antibody, V domains shown)
VH: QVQLQQSGAELVRPGASVTLSCKASGSTFSDFEIHWVKQTPVHGLEWIGGIDPETGGTAYNQKFKGKAILTADRSSSTAYMELRSLTSEDSAVYYCTRNYDGYSQTMDYWGQGTSVTVSS
VL: NIMMTQSPSSLAVSAGEKVTMSCKSSQSVLYSSNQKNYLAWYQQKPGQSPKLLIYWASTRESGVPDRFTGSGSGTDFTLTISSVQAEDLAVYYCHQYLSSYTFGGGTKLEMK
notes: Mouse monoclonal antibody from a hybridoma; also called anti-FGFR3 antibody KE63
With B4, the binding result with human FGFR3 isoform IIIc, with human FGFR3 isoform IIIb and with cynomolgus FGFR3 was “binds” in each case. Also, in experiment [4], the affinity, expressed as Kd, was 6.7 nM. In experiment [4], this molecule returned a koff of 0.00291 s⁻¹. In experiment [4], this molecule yielded a kon of 436000 M⁻¹ s⁻¹.

B5: KC18 (antibody, V domains shown)
VH: QVQLQQSGAELVRPGASVTLSCKASGDTFTDFEIHWVKQTPVHGLEWIGDIDPETGGTAYNQKFRGRAMLTADRSSSTAYMELRSLTSEDSAVYYCTRTYDGYPYAMDYWGQGTSVTVSS
VL: DIVMSQSPSSLAVSVGEKVTMSCKSSQSLLYSNNQKNYLAWYQQKPGQSPKLLIYWASTRESGVPDRFTGSGSGTDFTLTISSVKAEDLAVYYCQQYYSYRTFGGGTKLEIK
notes: Mouse monoclonal antibody from a hybridoma; also called anti-FGFR3 antibody KC18; KC18 mouse antibody
With B5, the binding result in the experiment with human FGFR3 isoform IIIc, with human FGFR3 isoform IIIb and in the experiment with cynomolgus FGFR3 was “binds” throughout. Also, in experiment [4], the Kd was 6.3 nM. This molecule gave a koff in [4] of 0.0011 s⁻¹. This molecule also showed an on-rate (kon) in experiment [4] of 174000 M⁻¹ s⁻¹.

B6: KE63 (antibody, V domains shown)
VH: QVQLQQSGAELVRPGASVTLSCKASGSTFSDFEIHWVKQTPVHGLEWIGGIDPETGGTAYNQKFKGKAILTADRSSSTAYMELRSLTSEDSAVYYCTRNYDGYSQTMDYWGQGTSVTVSS
VL: NIMMTQSPSSLAVSAGEKVTMSCKSSQSVLYSSNQKNYLAWYQQKPGQSPKLLIYWASTRESGVPDRFTGSGSGTDFTLTISSVQAEDLAVYYCHQYLSSYTFGGGTKLEMK
notes: as for B1
On to B6, for which the binding result in experiment [1] and in experiment [2] was “binds” throughout.

B7: KE94 (antibody, V domains shown)
VH: QVQLQQSGAELVRPGASVTLSCKASGSTFTDFEIHWVKQTPVHGLEWIGAIDPETGGTAYNQKFKGKAILTAVKSSSTAYMGLRSLTSEDSAVYYCTRNYDGYSRTMDYWGQGTSVTVSS
VL: NIMMTQSPSSLAVSAGEKVTMSCKSSQSVLYSSNQKNYLAWYQQKPGQSPKLLIYWASTRESGVPDRFTGSGSGTDFSLSISSVQTEDLAVYYCHQYLSSYTFGGGTRLEMK
notes: Mouse monoclonal antibody from a hybridoma; also called anti-FGFR3 antibody KE94
Take B7: the binding result with human FGFR3 isoform IIIc, with human FGFR3 isoform IIIb and in the experiment with cynomolgus FGFR3 was “binds” throughout. This molecule came in with a dissociation constant (Kd) in experiment [4] of 2.1 nM. In experiment [4], this molecule displayed a koff of 0.00148 s⁻¹. The association rate constant (kon) in experiment [4] was determined as 705000 M⁻¹ s⁻¹.

B8: KE94 (antibody, V domains shown)
VH: QVQLQQSGAELVRPGASVTLSCKASGSTFTDFEIHWVKQTPVHGLEWIGAIDPETGGTAYNQKFKGKAILTAVKSSSTAYMGLRSLTSEDSAVYYCTRNYDGYSRTMDYWGQGTSVTVSS
VL: NIMMTQSPSSLAVSAGEKVTMSCKSSQSVLYSSNQKNYLAWYQQKPGQSPKLLIYWASTRESGVPDRFTGSGSGTDFSLSISSVQTEDLAVYYCHQYLSSYTFGGGTRLEMK
notes: as for B1
Regarding B8, the “EC50, inhibition of FGF18-induced FGFR3 dimerization (RLU, beta-galactosidase complementation in U2OS cells); fitted curve 'KE94 with FGF18'” value in experiment [5] was 0.102 µg/mL. Moreover, the binding result in experiment [1] and in experiment [2] was “binds” each time.

B9: KC18_Hu46 (antibody, human IgG1, kappa, V domains shown)
VH: EVQLVQSGAEVKKPGATVKLSCKASGDTFTDFEIHWVQQAPGKGLEWIGDVDPETGGTAYAEKFQGRATLTADRSTDTAYLELSSLRSEDTAVYYCTRTYDGYPYAFDYWGQGTLVTVSS
VL: DIVMTQSPDSLAVSLGERVTINCKSSQSVLYSDNQKNYLAWYQQKPGQSPKLLIYFASTRESGVPDRFSGSGSGTDFTLTISSVQAEDVAVYYCQQYYSYRTFGGGTKLEIKR
For B9, the “IC50, inhibition of FGF18-stimulated Erk phosphorylation (pErk/Erk %, HTRF), 'Hu46 on WT PRCs'” value in the experiment with WT PRCs [6] was 0.55 µg/ml.

B10: KC18_Hu18 (antibody, human IgG1, kappa, V domains shown)
VH: EVQLVQSGAEVKKPGATVKLSCKASGDTFTDFEIHWVQQAPGKGLEWIGDVDPETGGTAYAEKFQGRATLTADRSTDTAYMELSSLRSEDTAVYYCTRTYDGYPYAFDYWGQGTLVTVSS
VL: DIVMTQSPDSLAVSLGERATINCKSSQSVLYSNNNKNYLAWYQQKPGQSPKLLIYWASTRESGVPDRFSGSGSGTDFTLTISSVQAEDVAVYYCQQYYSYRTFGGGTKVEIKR
For B10, the “IC50, inhibition of FGF18-stimulated Erk phosphorylation (pErk/Erk %, HTRF), 'Hu18 on WT PRCs'” value with WT PRCs [7] turned out to be 0.42 µg/ml.

B11: KE58 (antibody, V domains shown)
VH: EVQLQQSGPDLVKPGASVKISCKASGYTVTDYYMNWVKQSHGKSLEWIGDINPNNGVTTYNQKFKDKATLTVDKSSSTAYMELRSLTSEDSAVYYCAREEDFDGFDYWGQGTTLTVSS
VL: DIVMTQSHKFMSTSVGDRVSITCKASQDVSTGVAWYQQKPGQSPQLLIYWASTRHTGVPDRFTGSGSGTDYILTIRSVQAEDLALYYCQQHYSTPLTFGAGTKLELK
notes: as for B1
As for B11, in experiment [8], the “EC50, inhibition of FGF18-induced FGFR3 dimerization (RLU, beta-galactosidase complementation in U2OS cells); fitted curve 'KE58 with FGF18'” value turned out to be 0.423 µg/mL. Besides, the binding result in experiment [1] and in [2] was “binds” each time.

Usually Kd stands for a measure of binding affinity in units of concentration. Higher therefore signals a looser complex. As usually defined, the koff is a measure of how fast the partners let go of each other. A higher koff goes with a short-lived complex. What is called kon is a measure of how fast the partners come together. The low end stands for slow association, the high end for fast association.
